Columns and labels:
PC12 cells = experiment: Transfection of PC12 cells, immunofluorescence: neurites and perinuclear inclusions; format: cell-based, rat; settings: for transfected cells with neurites: neurites exceeding two body diameters, vector alone 4.7%
Description: cDNA constructs and transfection of cells. Cloned HAP1-A and HAP1-B cDNAs were inserted into the expression vector pCIS (Li et al., 1995) carrying the cytomegalovirus promoter. The expression constructs encoding N-terminal human huntingtin (253 amino acids) with 23, 73, or 120 glutamines were obtained in a previous study (Li and Li, 1998). PC12 cells were plated onto two-well chamber slides at a density of 50,000/cm^2 and cultured for 24 h. Two micrograms of plasmid DNA was then added to each well in a 1-ml solution containing Lipofectamine (10 μg/ml), yielding 3-8% transfected cells. Following 18-24 h transfection, the media were replaced with fresh growth media and the cells were grown for another 24 h before immunofluorescent staining. The immunostaining images were captured using a 3CCD camera video system. Neurite length was measured as cell body diameters. The average sizes (μm) of perinuclcar huntingtin inclusions were obtained by measuring the diameters of inclusions in 58-112 cells transfected with huntingtin alone. The percentage of transfected cells with neurites that exceeded two body diameters was obtained by counting 200-300 transfected cells in three independent experiments. For double transfection, equal amounts (2 μg for each) of HAP1-A and huntingtin cDNAs were transfected into PC12 cells in each well of six-well dishes. The transfected cells were immunostained with the rabbit polyclonal antibody for HAP1-A and mouse monoclonal antibody for huntingtin.

parental PC12 cells = experiment: Neurite outgrowth assay, parental PC12 cells; format: cell-based, rat; settings: control/parental PC12 cells; IL-6 20 ng/ml, CNTF 20 ng/ml, EGF 10 ng/ml, bFGF 20 ng/ml
Description: To evaluate neurite outgrowth, we plated the cells at low density (2×10^4 Cells/cm^2) onto six-well plates. Cell cultures were treated with NGF (100 ng/ml) for 48 hr or with staurosporine (50-100 nM) and EGF (10 ng/ml) for 16 hr and were fixed with 4% paraformaldehyde in PBS for 15 min. After several washes with PBS, cells with neurites exceeding the cell diameter were counted using an inverted microscope (Olympus Optical CK2, Tokyo, Japan). At the same time, five to seven images (10×) were captured by a Pixera camera, and the percentage of cells with neurites was confirmed by analyzing these images. On average, 500-800 cells were counted for each group.

Molecule	length of the neurites (PC12 cells; single transfection) [body diameters]	transfected cells with neurites (PC12 cells; single transfection) [%]	cells with elongated neurites (PC12 cells; double transfection with HAP1-A, HAP1-A alone 29.4%) [%]	neurite outgrowth promoted by growth factor (parental PC12 cells)
HAP1-A: huntingtin-associated protein isoform expressed from cloned cDNA in pCIS vector transfected into PC12 cells (protein) MRPKDQVQSSAGDGTGSGDPATGTPTTQPAADPAPEPSAEPKPAPAQGTGSGQKSGSRTKTGGSFCRSRIRGDSDAPWTRYIFQGPYGPRATGLGTGRAEGIWKTPAAYIGRRPGVSGPERAAFIRELQEALCPNPLPRKKITEDDIKVMLYLLEEKERDLNTAARIGQSLVKQNSVLMEENNKLETMLGSAREEILHLRKQVNLRDDLLQLYSDSDDDEEDEEDEEEEEGEEEEREGQRDQDQQHDHPYGAPKPPPKAETLHHCPQLEALKQKLKLLEEENDHLREEASHLDNLEDKEQMLILECVEQFSEASQQMAELSEVLVLRLEGYERQQKEITQLQAEITKLQQRCQSYGAQTEKLQQQLASEKGVHPESLRAGSHMQDYGSRPRERQEDGKSHRQRSSMPAGSVTHYGYSVPLDALPSFPETLAEELRTSLRKFITDPAYFMERCDTRCREERKKEQGTMPPPPVQDLKPPEDFEAPEELVPEEELGAIEEVGTAEDGPAEETEQASEETEAWEEVEPEVDEATRMNVVVSALEASGLGPSHLDMKYVLQQLSNWQDAHSKRQQKQKVVPKGECSRRGHPPASGTSYRSSTL	3.8	29.4	–	–
HD-23Q: N-terminal region of human huntingtin (amino acids 1-253) with 23 glutamines, expression construct (protein) MATLEKLMKAFESLKSFQQQQQQQQQQQQQQQQQQQQQPPPPPPPPPPPQLPQPPPQAQPLLPQPQPPPPPPPPPPGPAVAEEPLHRPKKELSATKKDRVNHCLTICENIVAQSVRNSPEFQKLLGIAMELFLLCSDDAESDVRMVADECLNKVIKALMDSNLPRLQLELYKEIKKNGAPRSLRAALWRFAELAHLVRPQKCRPYLVNLLPCLTRTSKRPEESVQETLAAAVPKIMASFGNFANDNEIKVLLK	–	5.1	24.6	–
CNTF: ciliary neurotrophic factor (protein, UniProt P26441 1-200, looked up) Ciliary neurotrophic factor: MAFTEHSPLTPHRRDLCSRSIWLARKIRSDLTALTESYVKHQGLNKNINLDSADGMPVASTDQWSELTEAERLQENLQAYRTFHVLLARLLEDQQVHFTPTEGDFHQAIHTLLLQVAAFAYQIEELMILLEYKIPRNEADGMPINVGDGGLFEKKLWGLKVLQELSQWTVRSIHDLRFISSHQTGIPARGSHYIANNKKM	–	–	–	did not promote neurite outgrowth

— patent US6355481B1, “Hybridoma cell line and monoclonal antibody for huntingtin protein” (Emory University, priority 1999, dated 2002)
